± gives the uncertainty stated by the source.
Test: amyloid nucleation score (Sup35N fusion, yeast selection) (log enrichment); library NNK1; higher = more nucleation; inactive = no reads after selection
In short: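 On medium lacking adenine and uracil, psi-negative yeast expressing peptides of 20 random codons fused to Sup35N were grown 7 days at 30°C after a 24-hour induction with 100 μM copper sulfate. Illumina sequencing of input and output plasmid inserts gave the reads, and sequences under 100 input reads were excluded. The nucleation score is the DiMSum log enrichment of output over input reads, centred on the mode score of non-aggregating sequences.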

Row | Substance | amyloid nucleation score
1 | TCFEMLPLK | 0.454 ± 0.5
2 | FTTDVERSVLFEVNLWSNGW | 5.33 ± 0.066
3 | CAHIY | -0.747 ± 0.99
4 | SRCCGPCYTAV | -0.115 ± 0.3
5 | MAGSSMTISVLYSWIP | inactive
6 | NNLTVLIWVMPMDRI | 1.99 ± 0.39
7 | GPKKTLMFPSFISDSCARKG | 0.535 ± 1.2
8 | CYWSFKSAVAGPLSSESEGS | 4.4 ± 0.095
9 | NCFRLILFVLSDHRQWCFES | -1.78 ± 1.7
10 | LCNLGMLRLSGMENRINRVG | 1.29 ± 0.6
11 | LVFFCNM | 7.824 ± 0.06
12 | LEGLRQDEVGRSASKTVKYS | 1.18 ± 0.76
13 | RSRKK | 0.34 ± 0.21
14 | NCYMIFVKRLPLC | 0.023 ± 0.41
15 | KIRVILYVPRVS | 1.76 ± 0.51
16 | GLLRLDRVNISALICHQVNV | 0.873 ± 0.62
17 | LAMRAMIRNVLFTKSQLHDR | -0.154 ± 0.38
18 | GRVLDGRILLPVILSVWGCS | -0.563 ± 1.1
19 | LYGYSI | 0.778 ± 0.41
20 | NESDI | 0.392 ± 0.26
21 | FNDRPVWVFCLRWWDSSVNS | -0.857 ± 0.84
22 | FYPLF | 1.27 ± 0.66
23 | NIGMRDTGVLLDKLCQV | -0.594 ± 0.65
24 | KWLTFVMDMSDLCYSSFNVN | inactive
25 | VIESG | 1.34 ± 0.93

Row | Substance | amyloid nucleation score
26 | FADAASNPNAII | 0.071 ± 0.4
27 | LGVQFSGRLSVPVYFMWFTL | 0.814 ± 0.61
28 | CKSESRFLFAYNSLCLKSMG | -0.043 ± 0.3
29 | SCQSALLRILGSRVSFQARA | -0.192 ± 0.49
30 | RGSVWATSCRIAKPIVFWGW | inactive
31 | SIQCKKFGGIWCTDTRSIGP | 1.33 ± 0.33
32 | SRWTFSNRAFYRTGAWA | 0.235 ± 0.68
33 | STRGHNMTEINVWMVHNILT | -0.116 ± 1.4
34 | IASVQLS | 1.16 ± 0.53
35 | RMYWVDFAGLFIDCL | inactive
36 | LCFVRMRYLFESDCPRHRKH | 0.384 ± 0.65
37 | HASWVRAITWVHQAGTYVML | -0.693 ± 1.3
38 | DDWIVRHCFNCLSVWMYLRY | 0.257 ± 0.9
39 | MFRNI | 0.227 ± 0.26
40 | SFRYVGCWYMARWFS | -0.497 ± 0.3
41 | LKYKKLPFIKRDEKFPTNRN | 0.398 ± 0.54
42 | FGFHRVGSGIMRVVAQH | 0.242 ± 0.44
43 | SIHGGFYTLPE | 1.15 ± 0.51
44 | YYNNLRVSSYQSKFPIMAMF | inactive
45 | AWQRVSVKFELGDIGPEGLY | -0.668 ± 0.31
46 | LFKNRVRLLLHERSLLPVII | 0.469 ± 0.68
47 | PAHKLILFPPCCVGVWYSER | inactive
48 | SIRVSDYQRVFNNIGMSNCN | -0.454 ± 0.53
49 | HAKHLLRKQWLDGCA | inactive
50 | LWFQLLMLEFSRNKPIQTVG | -0.138 ± 0.64

Row | Substance | amyloid nucleation score
51 | GPISLWSPLRSVN | 0.444 ± 0.84
52 | GWENSLYNFFCLW | 0.342 ± 0.35
53 | TLNHRSLCFSSVDILWVWII | -0.533 ± 0.9
54 | VKIHASEVYFPMQSTYLMVD | 0.086 ± 0.72
55 | SLLYSITNVCTLRGRMCCLA | 0.116 ± 0.45
56 | GHPVWRCFSDGSSPLFWDYG | inactive
57 | SGVWNEFEGCWMVDDVIDPL | 0.268 ± 0.44
58 | SQYQTLDVHIKGNVCSNLDM | 0.012 ± 1.6
59 | LLNFFK | 0.609 ± 1.1
60 | NFAPRYLAI | 0.295 ± 0.34
61 | SYHLLMHMGIGQTLYKTRYD | 1.98 ± 0.21
62 | AAFDRNSEGNAPMPVMCPCI | 0.34 ± 0.75
63 | YKWGWAVYHIGHGCRVWRWT | 1.49 ± 0.4
64 | GFVMKLLL | 1.35 ± 0.21
65 | GKYMFPCCMTAITQKLRPRR | -0.108 ± 0.33
66 | CFSLLNYSCFSCIDLFHPLY | 5.23 ± 0.084
67 | TWARRFYATRVTTCLNQRVL | 0.416 ± 0.81
68 | TTLKGCSIY | 0.934 ± 0.41
69 | ISQVYGDNTDFVLLVSSDNV | 0.544 ± 0.33
70 | EDAWGIIEEIIGWRGCGRLA | -0.84 ± 0.74
71 | DWGKSSPLLKVLLMQSRLPC | -0.073 ± 0.45
72 | LPCSRRTTPSDVCP | -0.271 ± 0.36
73 | SRFWGER | 0.801 ± 0.62
74 | STFWENIIVFFHGPYHDMHT | -0.647 ± 0.69
75 | LSKKFWRFVWARLSEELIER | 0.811 ± 0.51

Row | Substance | amyloid nucleation score
76 | IGLMALLGLTRDR | 2.17 ± 0.12
77 | KSLVKYKWNLTFILY | inactive
78 | ADAGGSQVWAYQAQIICPKW | -0.63 ± 1.3
79 | YYYEPLFPRELHSQLYLL | -0.268 ± 0.8
80 | LHVEWSASMSMFCLNHRIAA | -0.172 ± 0.61
81 | EIARHSFF | inactive
82 | MGCKAKRAFVEFLSRMEVRP | -0.035 ± 0.22
83 | CSGYDGNSSYNGSNPVSFND | 0.056 ± 0.77
84 | AHSAYL | 0.43 ± 0.4
85 | YIYRDTYLRTPKLGSHMYCL | inactive
86 | MWYVHHCQGSVTLLARGRLC | 0.886 ± 1
87 | GHRTWRLITAIDA | 0.088 ± 0.4
88 | HHAGPSG | 0.72 ± 0.46
89 | KFSSKFTSG | 0.436 ± 0.37
90 | CFINSDVMVLLVTTYHYS | 7.321 ± 0.071
91 | SLRSPWDRCSFRHFLPFFTM | -0.735 ± 0.69
92 | DLPWSMLKVL | 0.689 ± 1.2
93 | PLAMNSFVIVIDGRLHVLGD | 4.72 ± 0.12
94 | IHKDFSLMHILRIHLVGVFS | inactive
95 | LKCFLINVMLLEMLPFWDRS | 1.62 ± 0.55
96 | SNTRFSCRSPWVCTFFVREV | 0.085 ± 0.52
97 | LSFETRRWMYYIS | 0.446 ± 0.24
98 | KTVVSELSVVNEVVA | -0.359 ± 0.31
99 | GVQFQVVRMSCSVLSARLRL | 1.29 ± 0.18
100 | NIFIFTVSHKPNY | 7.926 ± 0.057

Row | Substance | amyloid nucleation score
101 | SRMWR | -0.068 ± 0.45
102 | MLGKNSSCESNMEYVFRSCL | 0.244 ± 0.23
103 | WRHATSEMCFEGMLKCKVVT | 0.903 ± 0.57
104 | LGKPVWVQEAKLDADNLWCV | -0.438 ± 0.49
105 | CIVYFSCLMYHWILDC | 0.422 ± 0.65
106 | NGPLHSYYTVWGCMYCLLML | 3.06 ± 0.23
107 | FGVYLACIHRKVLECDR | -0.241 ± 1
108 | MRVVPHVWLTWHEATVVLQV | 0.807 ± 0.28
109 | FSRCCTFSSDYFNARCIERN | 1.22 ± 0.23
110 | ISFPSSDYGGGSAPVEGWLG | 0.47 ± 1.2
111 | VRSDAVKEARISFCLRSKRF | 0.423 ± 1.4
112 | VATCWRYSGMSARLLSGSLN | 0.516 ± 0.4
113 | SLLNTELQIKAQYDQMSHRR | 0.36 ± 0.44
114 | SVFISNERL | inactive
115 | AKLWQY | -0.185 ± 1.1
116 | FNSARGSLVPRFPRGEQR | -0.787 ± 1.9
117 | LATFVWPGHGRV | 1.65 ± 0.14
118 | GLPKSFM | -0.981 ± 1.3
119 | FDNVVENHSS | -0.074 ± 0.43
120 | VLMLRSGWPQRRPHFG | -0.301 ± 0.76
121 | SPSSVYVINLNSNLRGNGFA | 7.08 ± 0.078
122 | HWLQY | 0.156 ± 0.43
123 | TSDRVVPFGSISWKGCSRVR | -0.981 ± 0.85
124 | DPYMNWIVLYSGVRHWNGVM | 0.056 ± 1.4
125 | CALAIRIVCS | inactive

Row | Substance | amyloid nucleation score
126 | FFNAV | -0.353 ± 0.59
127 | AWILRWKEIPMEYSLSS | 0.202 ± 0.56
128 | HGLKWGFQLTNLSMLVTSCM | -0.475 ± 1.1
129 | SYVMGLVYLIYTCKYWFFSE | -0.827 ± 1.7
130 | IHSQHKHVIMRA | -0.061 ± 0.57
131 | DLLYERTYRSVVISLRTLAG | 0.816 ± 0.92
132 | LLMYKKCRQWGCGNVSCSFD | 7.086 ± 0.065
133 | FVMSHSL | 0.987 ± 0.43
134 | RDMMMRRWVVSKSEL | 0.711 ± 0.72
135 | VPVGRWRSWICVRIRL | 0.831 ± 0.65
136 | NLYMANGDVMCSREGAEQCS | 1.5 ± 0.14
137 | CRFKYHLRV | -1.21 ± 2.4
138 | VSRWHQCADPPRCGHRCIWA | 0.299 ± 0.51
139 | VLLTR | 0.505 ± 0.36
140 | FPCALSYAGMVSTVRALRKF | 0.228 ± 0.8
141 | EKGLEFHLWLRPVLRACVGY | 1.01 ± 1.1
142 | IAMSIKWRRW | 2.8 ± 0.093
143 | MGFQFNTFCF | 8.144 ± 0.062
144 | LNNAGTFFLPEVFRLRWTNV | 0.018 ± 0.93
145 | LACWLTTRNKCILNSLITLV | 0.08 ± 1.1
146 | MTSYGSFRKATWNDWISNMS | -0.393 ± 0.41
147 | SLQAIGNWYHD | 0.038 ± 0.6
148 | LFWSET | -0.526 ± 0.81
149 | QSVKTQGVVCAVSIYFGGCS | 2.39 ± 0.23
150 | SHVVCVCLRDLPRIFVFVEK | 6.63 ± 0.07

Row | Substance | amyloid nucleation score
151 | QYPRFHVTGTGRLCGSRMSY | -0.382 ± 0.4
152 | LYNPFHIRESMRSRPLVRWV | -0.1 ± 0.32
153 | TTWER | 0.496 ± 1.2
154 | DKWLPIFTGGQLLSNLIFFC | 0.832 ± 0.18
155 | GIGMRGVQHSSCEVARYWGS | 1.12 ± 0.35
156 | GNNLHLRS | -0.121 ± 0.66
157 | TCLRACVHLVNYGVDMFSDK | 1.83 ± 0.32
158 | CVYGIGVYR | -0.84 ± 0.95
159 | YVRFYLFNFVGLRQKFMI | 2.74 ± 0.17
160 | AVGGDSMYSLQSGYKLILAS | 0.288 ± 0.35
161 | SGCCVASFYHRDSILSCEKA | 0.446 ± 0.58
162 | LIRTLANWLSIPHVLI | -0.351 ± 0.3
163 | HQYVMFESLTYICLPLRDRL | 4.98 ± 0.1
164 | LGYIVRFQCMYTRRYCSCPD | -1.47 ± 2.7
165 | SGWCGSTFSCERNPTVYSSC | 1.96 ± 0.26
166 | GSYWWDCFVNGGYEKFCTVP | 0.191 ± 0.68
167 | IVGSLYLELYSRR | 1.57 ± 0.18
168 | CSSPRTTLEYWNCFFDHWWS | 2.64 ± 0.2
169 | LAFTSLSNLYEDMCYQDWMV | 1.82 ± 0.36
170 | AGKCGIQWACEM | 0.194 ± 0.69
171 | FPFFLMCMSSGFYSV | 2.35 ± 0.25
172 | MLIKSIFIFSTLLYISMYD | 0.786 ± 0.29
173 | LQNVGRENEESTCERRSKVY | inactive
174 | RLFPDAMDSRRYIKWQRVV | 0.215 ± 0.42

— the supplement of paper PMC12042874
